From the nanobody polyreactivity screen of Harvey et al. (2022)

Assay: yeast display, Sf9 membrane polyspecificity reagent, FACS + sequencing; frameworks hold sequencing errors
Method in brief: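 After 36–48 hours of galactose induction, yeast (Saccharomyces cerevisiae BJ5465) displaying a synthetic nanobody library were stained at 4 °C for 1 hour with 10% biotinylated, detergent-solubilized Sf9 membrane reagent. Streptavidin microbeads enriched the stained cells before FACS sorting into low and high (top ~1%) gates on anti-HA and streptavidin fluorescence. Each clone's polyreactivity label reflects its gate of origin.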

Sequence	polyreactivity (PSR sort gate)
QVQLVESGGGLVQAGGSLRLSCAASGSTFSYNAMGWYRQAPGKERELVAAITSSGSSTYYADSVKGRFTISRYNAKNTVYLQMNSLKPEDTAVYYCNAEVLFVAGQVQRNSGDYWGQGTQVTVSS	low polyreactivity
QVQRVESGGALVQAGGSLRLSCAASGSTFYAYAMGWYRPAPGKERELVAAITYRDGRTYYADSVKGRFTISRDNAKNTVYLQMNRLKQEDTAVYYCARKTGFTVRRYDYWGHGTQVTVSS	high polyreactivity
QVQLVESGGGLVQAGGSLRLSCASSGRIFTWYAMGWYRQAPGKERELVATISSGGSTNYADSVKGRFTISRDNAKNTVYLHMNSKKPEDTAVYYCAARRFFYRYYYKSDYWGQGTQVTVSS	high polyreactivity
QVQLVDSGGGLVQAGGSLRLSCAASGRIFNWYAMGWYRQAPGKERELVARITWCDGGTYYADSVKGRFTISRDNAKNTVSLQMNSLKPDDTAVYYCAKQWKSYYALDYWGQGTQVTVSS	high polyreactivity
QVQLVESGGGLVQAGGSLRLSSAASGRTFYRYVMGWYRQAPGKERELVADITRSGGSTYYADSVKGRFTISRDNAKNTVYLQMNSLKPEDTAVYYCAAEFLSSVHVRGMDYWGQGTQVTVSS	high polyreactivity
QVQLVESGGGLVQAGGSLRLSCAASGYIFKYYAMGWYRQAPGKERELVAAISRSGGSTYYADSVKGRFTISRDNAKNTVYLQMNSLNPEDTAVYYCAADSYYYQGYRRYNYDYWGQGTQVTVSS	high polyreactivity
QVQLVESGGGLVQAGGSLRLSCAPSGSTFFWYSMGWYRQAPGKERELVARISRRSGSTYYADSVKGRFTISRDNAKNTVYLQMNSLIPEDTAVYYCNARAVGAPGSVRYDYWGQGTQVTVSS	low polyreactivity
QVQLVESGGGLLQAGGSLLLSCAASGITFYDNAMGWYRQAPGKERELVAGISYDGDSTYADSVKGRFTISRDNAKNTVYLQMNSLKPEDTAVYYCAALGPYEWLWAGDYWGQGTQVTVSS	low polyreactivity
QVQLVESGGGLVQAGGSLRLSCAASGFTFAVNAMGWYRQAPGKERELVAAISKSGGRTYYADSVKGRFTISRDNAKNTVYLQMNSLKPEDTAVYYCAAEGPGYTYDYWGQGTQVTVSS	high polyreactivity
QVQLVESGGGLVQAGGSLRLSCAASGRTFRRYVMGRYRQAPGKEMEMVARITTSGGNTYYADSVKGRFTISRDNAKITVYLQMNSMKPEVTAVYYCAADFLRTYKEYNLGYWGQGTQVTVSS	low polyreactivity
QVQLVESGGGLVQAGGSLRLSCAASGYILYGNTMGWYRQAAGKERELVAVISGGGSTNYADSVKGRFTISRDNAKNTVYLQMNSLKPQDTAVYYCAVKTNQAGYDYWGQGTQVTVSS	low polyreactivity
QVQLVESGGGLVQAGGSLRLSCAASGSTFYANAMGWYRQAPGKERELVAVIRWSGGSTYYADSVKGRFTISRDNAKNTVYLQMNSLKPEDTAVYYCNADFYRVAYLRRYSHFDYWGQGTQVTVSS	high polyreactivity
QGQLVESGRGLVQAGGSLRLSCAASGRTFRRYGKGWYRQAPGNERELVAAITSGGGTYYEDSVKGRVTISRDNAKNTVYLQMNSLKPEDTAVYYCAAQRVYKSSPSYDFWGQGTQVTVSS	low polyreactivity
QVQLGESGGGLVQAGGSLRLSCAASGIIFGYYAMGWYRQAPGKERELVAAITWSGGSTYYADSVKGRFTISRDNAKYTVYLQMNSLKPEDTAVYYCAASAYVQPYDYWGQGTQVTVSS	high polyreactivity
QVQLVESGRGLVQAGGSLRLSCAASGFMIGINAMGWYRQAPGKERELVDAISTGDRTNYAHSVKGRFTISRDNAKNTVYLQMNSLKPEDTAVYYCAKDWRRNRPYEWTYDYWGQGTQVTVSS	low polyreactivity
QVQLVESWGGLVQAGGSLRLSCAASGFTFDYNGMGWYRQAPWKERELVAGIRWSGGSTYYADSVKGRFTISRDNAKNTVSLQMNSLKPEDTAFYYCAADTLPAEYEYDYWGQGTQVTVSS	low polyreactivity

Sequence	polyreactivity (PSR sort gate)
QVQLVESGGGLVQAGGSLRLSCAASGFTFYRNAMGWYRQAPGKERELVAAINYSGGSTYFADSVKGRFTISRDNAKNTVYLQMNSLKPEVTAVYYCAVPYNYYRYHYSGYDYWGQGTQVTVSS	high polyreactivity
QVQLVESGGGLVQAGGSLRLSCAASGGIFSTYTMRWYRQAPGKERELVAAITTGNSTYYADSVKGRFTISRDNAKNTVYLQMNSLKPEDTAVYYCAAFAASRDYYRRLFHDGYDYWGQGTQVTVSS	low polyreactivity
QVQLVESGGGLVQAGGSLRLSCAASGFTFYYYTMGWYIKAPGKERELVAAITRSGGRTYYADSVKGRFTISRDNAKNTVYLQMNSLKPEDTAVYYCAARTPFYNSYRRDYWGQGTQVTVSS	high polyreactivity
QVQLVESGGGLVQAGGSLRLSCAASGSIFYEYTMGWYRQAPGKERELVAVITSGGTTNYADSVKGRFTISRDNAKNTVYLQMNSLKPEYTAVYYCAAESKNKYDYWGQGTQVTVSS	high polyreactivity
QVQLVESGGGLVQAGGSLRLSCAASGSIFYDNAMGWYRQAPGKEREFVAAISTSGGSTYYADSVKGRFTISRDTAKNTVYLQMNSLKPEDTAVYYCAAEWPDLGYWWWYDVGYGYWGQGTQVTVSS	high polyreactivity
QVQLVESGGGLVQAGGSLRLSCAASGSTFGANAMGWYRQAPGKERELVATISSGGRTYYADSVKGRFTISRDNAKNTVYLQMNSLKPEDTAVYYCNAGADYTYVYISVYVLYDYWGQGTQVTVSS	low polyreactivity
QVQLVESGGGLVQALGSLRLSCVASGSTYDAYDMGWYREAPGKERELVAAITSGGSTYYADSVKGRFTISRDNAKNTVYLQMNSLKPEDTAVYYCAASNQWSSTYLTYGFYYWGQGTQVTVSS	low polyreactivity
QVQLVESGGGLVQAGGSLRLSCAASGRTLKLNAMGWYRQAPGKERELVAAISWRGGSTYYADSVKGRFTISRDNAKNTVYLQMNSLKPEDTAVYYCAAEATAGFWSYGTYDYWGQGTQVTVSS	high polyreactivity
QVQLVESGGGLVQAGGSLRLSCAASGFIFRYYAMAWYRQAPGKERELVASISRRGGSTYYADSVKGRFTISRDNSKNTFYLQMIRLIPEDTAVYYCAADVVNTVYYPGYDYLGQGTQVTVSS	high polyreactivity
QVQLVESGGGLVQAGGSLRLSCDASGSTFGWYAMGWYRQAPGKERELVAAISKNGGRTYYADSVKGRFTISRDNAKNTVYLQMNSLKPVDTAVYYCNKVSKTVRDFDYWGQGTQVTVSS	high polyreactivity
QVQLVESGGGLVQAGGSLRLSCAASGFTFGQYAMGWYRQAPVKERELVAAITGSGGRTYYADSVKGRITISRDTAKNTVYLQMNSLKPEDTGVYYCNARVPLRQYSNYYWGQGTQVTVSS	high polyreactivity
QVQLVESGGGLVQAGGSLRLSCAACGRTFQHYAMGWYRQAPGKERELVAAISSGGRTYYADSVKGRFTISRDNAKNTVYLLMNSLKPEDTAVYYCAARYHGRDPRQIRYGYWGQGTQVNVSS	high polyreactivity
QVQLVESGGGLVQAGGSLRLSCAASGRIFEPYAMGWYRQAPGKERELFAAITSGGSTDYADSVKGRFTISRDNAKNTVYLQMNSLKPEDTAVYYCAARVTYGGIPARQIYDYWGQGTQVTVSS	low polyreactivity
QVQLVESGGGLVQAGGSLRLSCAASGRIFYSYGMGWYRQAPGKERELVATISIGGSTNYADSVKGRFTSSRDNAKNTVYLQMNSLKPEDTAVYYCNARAWFSYTSRRYTYWQEGYWGQGTQVTVSS	high polyreactivity
QVQLVESGGGLVQAGGSLRLSCAASGRIFSGNAMGWYRQAPGKERELVAAITWSGSSTFYADSVKGRFTISRDNAKNTVYLQMNSLKPEDTAVYYCAVDSSSPVRPHTDEDYWGQGTQVTVSS	low polyreactivity
